From paper PMC5871780, “Klf4 glutamylation is required for cell reprogramming and early embryonic development in mice”

Legend:
GST-Klf4-E381A = GST-Klf4-E381A (Mus musculus, UniProt Q60793 1-483, E381A); assay: EMSA; affinity comparable to wt; LightShift Chemiluminescent EMSA Kit (Thermo Scientific), per manufacturer; buffer, salt, pH and temperature not stated; conditions: protein: recombinant; tags: GST (N-term, pGEX-6P-1); blunt
GST-Klf4-wt = GST-Klf4-wt (Mus musculus, UniProt Q60793 1-483); assay: EMSA; unlabeled probe (1x or 100x) competes; LightShift Chemiluminescent EMSA Kit (Thermo Scientific), per manufacturer; buffer, salt, pH and temperature not stated; conditions: protein: recombinant; tags: GST (N-term, pGEX-6P-1); blunt
Sequence of GST-Klf4-wt (Q60793 whole entry): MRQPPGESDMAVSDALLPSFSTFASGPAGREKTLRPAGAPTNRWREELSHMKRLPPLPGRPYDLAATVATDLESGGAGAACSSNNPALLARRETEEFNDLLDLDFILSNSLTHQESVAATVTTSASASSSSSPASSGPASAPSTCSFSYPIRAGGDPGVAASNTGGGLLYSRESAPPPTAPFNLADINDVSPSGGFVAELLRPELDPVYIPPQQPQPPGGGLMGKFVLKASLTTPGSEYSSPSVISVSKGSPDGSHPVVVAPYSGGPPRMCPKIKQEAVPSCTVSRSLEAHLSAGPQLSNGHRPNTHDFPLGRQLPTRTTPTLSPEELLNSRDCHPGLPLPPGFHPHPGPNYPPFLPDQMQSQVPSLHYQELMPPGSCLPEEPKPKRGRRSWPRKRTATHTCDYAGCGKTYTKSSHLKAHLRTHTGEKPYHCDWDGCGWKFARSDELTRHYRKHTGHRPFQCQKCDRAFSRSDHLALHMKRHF

Sequence of GST-Klf4-E381A (Q60793 whole entry E381A): as the sequence (Q60793 whole entry) above, with E381A counted along it

B1: Nanog promoter probe (dsDNA)
DNA 1: GCCGCCTGGGTGCCTGGGAGAATAGGGGGTGGGTAGGGTAGGAGGCTTG
DNA 2: CAAGCCTCCTACCCTACCCACCCCCTATTCTCCCAGGCACCCAGGCGGC
B1: binds (GST-Klf4-E381A); binds (GST-Klf4-wt).
